The values that follow come from patent US20140212427A1 (published 2014).

The target in this test is human properdin (UniProt P27918 28-469). The experiment in a line: Biacore SPR. (In SPR one partner is held on a chip, and binding of the other changes the refractive index at the surface.)
human properdin, sequence (P27918 28-469): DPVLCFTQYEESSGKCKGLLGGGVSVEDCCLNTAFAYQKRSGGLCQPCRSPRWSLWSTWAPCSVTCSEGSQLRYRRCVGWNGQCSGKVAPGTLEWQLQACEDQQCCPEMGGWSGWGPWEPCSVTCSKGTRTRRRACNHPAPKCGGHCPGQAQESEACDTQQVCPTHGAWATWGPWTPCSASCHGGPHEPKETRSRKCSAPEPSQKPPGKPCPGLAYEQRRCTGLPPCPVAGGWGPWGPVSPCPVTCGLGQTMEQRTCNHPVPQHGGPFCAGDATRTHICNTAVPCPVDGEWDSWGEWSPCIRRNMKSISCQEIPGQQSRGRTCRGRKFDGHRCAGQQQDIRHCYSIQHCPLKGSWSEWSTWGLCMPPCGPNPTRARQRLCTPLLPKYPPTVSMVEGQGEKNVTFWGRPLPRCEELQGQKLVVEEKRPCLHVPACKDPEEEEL

B1: humanized 19.1 mAb with heavy chain variable region humanized 19.1 VH-3-66-04 (antibody, V domains shown)
VH: EVQLVESGGGLVQPGGSLRLSCAASGFSLTTYGVHWVRQAPGKGLEWVSVIWSGGDTDYNASFISRFTISRDNSKNTLYLQMNSLRAEDTAVYYCARNKDYYTNYDFTMDYWGQGTTVTVSS
VL: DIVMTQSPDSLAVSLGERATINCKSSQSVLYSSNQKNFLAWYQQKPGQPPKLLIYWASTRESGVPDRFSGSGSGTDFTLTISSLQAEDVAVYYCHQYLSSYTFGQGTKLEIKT
Regarding B1, the Kd was found to be 0.47 nM.

B2: mAb 19.1 (antibody, V domains shown)
VH: QVQLKQSGPGLVQPSQSLSISCTVSGFSLTTYGVHWVRQSPGKGLEWLGVIWSGGDTDYNASFISRLRINKDTSKSQVFFKMNSLQADDTAYYCARNKDYYTNYDFTMDYWGQGTSVTVSS
VL: NIMMTQSPSSLAVSAGEKVTMSCKSSQSVLYSSNQKNFLAWYQQKPGQSPKLLIYWASTRESGVPDRFTGSGSGTDFILTINSVQVEDQAVYYCHQYLSSYTFGGGTKLEIK
B2 had a Kd of 0.00284 nM.

B3: chimeric 19.1 mAb (antibody, V domains shown)
VH: QVQLKQSGPGLVQPSQSLSISCTVSGFSLTTYGVHWVRQSPGKGLEWLGVIWSGGDTDYNASFISRLRINKDTSKSQVFFKMNSLQADDTAYYCARNKDYYTNYDFTMDYWGQGTSVTVSS
VL: NIMMTQSPSSLAVSAGEKVTMSCKSSQSVLYSSNQKNFLAWYQQKPGQSPKLLIYWASTRESGVPDRFTGSGSGTDFILTINSVQVEDQAVYYCHQYLSSYTFGGGTKLEIKT
Regarding B3, the Kd was 0.00289 nM.

B4: humanized 19.1 mAb with heavy chain variable region humanized 19.1 VH-4-59-01 (antibody, V domains shown)
VH: QVQLQESGPGLVKPSETLSLTCTVSGFSLTTYGVHWIRQPPGKGLEWIGVIWSGGDTDYNASFISRVTISVDTSKNQFSLKLSSVTAADTAVYYCARNKDYYTNYDFTMDYWGQGTTVTVSS
VL: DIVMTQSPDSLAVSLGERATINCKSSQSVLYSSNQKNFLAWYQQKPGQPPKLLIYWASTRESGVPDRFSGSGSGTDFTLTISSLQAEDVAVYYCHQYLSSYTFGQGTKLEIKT
Consider B4, for which the Kd is 0.58 nM.

For orientation: Kd means the free concentration of one partner at which half of the binding sites on the other are occupied at equilibrium, for simple one-to-one binding. Lower therefore signals higher affinity.
